Consider 20 molecules from patent US20240018502A1.

B1: MTSP-1 protease domain Q38Y/I41A/D96I/ins97aQ/C122S (enzyme)
chain: VVGGTDADEGEWPWQVSLHALGYGHACGASLISPNWLVSAAHCYIDDRGFRYSDPTQWTAFLGLHDQSQRSAPGVQERRLKRIISHPFFNIFQTFDYDIALLELEKPAEYSSMVRPISLPDASHVFPAGKAIWVTGWGHTQYGGTGALILQKGEIRVINQTTCENLLPQQITPRMMCVGFLSGGVDSCQGDSGGPLSSVEADGRIFQAGVVSWGDGCAQRNKPGVYTRLPLFRDWIKENTGV
B2: MTSP-1 protease domain Q38H/I41S/D96Q/ins97aA/C122S/Q192T (enzyme)
chain: VVGGTDADEGEWPWQVSLHALGHGHSCGASLISPNWLVSAAHCYIDDRGFRYSDPTQWTAFLGLHDQSQRSAPGVQERRLKRIISHPFFNQFATFDYDIALLELEKPAEYSSMVRPISLPDASHVFPAGKAIWVTGWGHTQYGGTGALILQKGEIRVINQTTCENLLPQQITPRMMCVGFLSGGVDSCTGDSGGPLSSVEADGRIFQAGVVSWGDGCAQRNKPGVYTRLPLFRDWIKENTGV
B3: MTSP-1 protease domain Q38H/I41S/D96K/ins97aT/C122S/G151K/Q192A (enzyme)
chain: VVGGTDADEGEWPWQVSLHALGHGHSCGASLISPNWLVSAAHCYIDDRGFRYSDPTQWTAFLGLHDQSQRSAPGVQERRLKRIISHPFFNKFTTFDYDIALLELEKPAEYSSMVRPISLPDASHVFPAGKAIWVTGWGHTQYGGTKALILQKGEIRVINQTTCENLLPQQITPRMMCVGFLSGGVDSCAGDSGGPLSSVEADGRIFQAGVVSWGDGCAQRNKPGVYTRLPLFRDWIKENTGV
B4: MTSP-1 protease domain Q38Y/I41T/D96M/ins97aS/C122S/G151N (enzyme)
chain: VVGGTDADEGEWPWQVSLHALGYGHTCGASLISPNWLVSAAHCYIDDRGFRYSDPTQWTAFLGLHDQSQRSAPGVQERRLKRIISHPFFNMFSTFDYDIALLELEKPAEYSSMVRPISLPDASHVFPAGKAIWVTGWGHTQYGGTNALILQKGEIRVINQTTCENLLPQQITPRMMCVGFLSGGVDSCQGDSGGPLSSVEADGRIFQAGVVSWGDGCAQRNKPGVYTRLPLFRDWIKENTGV
B5: MTSP-1 protease domain Q38W/I41S/D96R/ins97aA/C122S/G151N/Q192A (enzyme)
chain: VVGGTDADEGEWPWQVSLHALGWGHSCGASLISPNWLVSAAHCYIDDRGFRYSDPTQWTAFLGLHDQSQRSAPGVQERRLKRIISHPFFNRFATFDYDIALLELEKPAEYSSMVRPISLPDASHVFPAGKAIWVTGWGHTQYGGTNALILQKGEIRVINQTTCENLLPQQITPRMMCVGFLSGGVDSCAGDSGGPLSSVEADGRIFQAGVVSWGDGCAQRNKPGVYTRLPLFRDWIKENTGV
B6: MTSP-1 protease domain Q38H/I41T/D96K/ins97aL/C122S/G151N/Q192A (enzyme)
chain: VVGGTDADEGEWPWQVSLHALGHGHTCGASLISPNWLVSAAHCYIDDRGFRYSDPTQWTAFLGLHDQSQRSAPGVQERRLKRIISHPFFNKFLTFDYDIALLELEKPAEYSSMVRPISLPDASHVFPAGKAIWVTGWGHTQYGGTNALILQKGEIRVINQTTCENLLPQQITPRMMCVGFLSGGVDSCAGDSGGPLSSVEADGRIFQAGVVSWGDGCAQRNKPGVYTRLPLFRDWIKENTGV
B7: MTSP-1 protease domain Q38H/I41A/D96R/ins97aQ/C122S (enzyme)
chain: VVGGTDADEGEWPWQVSLHALGHGHACGASLISPNWLVSAAHCYIDDRGFRYSDPTQWTAFLGLHDQSQRSAPGVQERRLKRIISHPFFNRFQTFDYDIALLELEKPAEYSSMVRPISLPDASHVFPAGKAIWVTGWGHTQYGGTGALILQKGEIRVINQTTCENLLPQQITPRMMCVGFLSGGVDSCQGDSGGPLSSVEADGRIFQAGVVSWGDGCAQRNKPGVYTRLPLFRDWIKENTGV
B8: MTSP-1 protease domain Q38H/I41S/D96G/ins97aG/C122S/G151N/Q192A (enzyme)
chain: VVGGTDADEGEWPWQVSLHALGHGHSCGASLISPNWLVSAAHCYIDDRGFRYSDPTQWTAFLGLHDQSQRSAPGVQERRLKRIISHPFFNGFGTFDYDIALLELEKPAEYSSMVRPISLPDASHVFPAGKAIWVTGWGHTQYGGTNALILQKGEIRVINQTTCENLLPQQITPRMMCVGFLSGGVDSCAGDSGGPLSSVEADGRIFQAGVVSWGDGCAQRNKPGVYTRLPLFRDWIKENTGV
B9: MTSP-1 protease domain Q38W/I41V/D96R/ins97aA/C122S/G151N (enzyme)
chain: VVGGTDADEGEWPWQVSLHALGWGHVCGASLISPNWLVSAAHCYIDDRGFRYSDPTQWTAFLGLHDQSQRSAPGVQERRLKRIISHPFFNRFATFDYDIALLELEKPAEYSSMVRPISLPDASHVFPAGKAIWVTGWGHTQYGGTNALILQKGEIRVINQTTCENLLPQQITPRMMCVGFLSGGVDSCQGDSGGPLSSVEADGRIFQAGVVSWGDGCAQRNKPGVYTRLPLFRDWIKENTGV
B10: MTSP-1 protease domain I41S/Y59F/ins97aV/C122S/G187D/Q192V/D217V (enzyme)
chain: VVGGTDADEGEWPWQVSLHALGQGHSCGASLISPNWLVSAAHCFIDDRGFRYSDPTQWTAFLGLHDQSQRSAPGVQERRLKRIISHPFFNDFVTFDYDIALLELEKPAEYSSMVRPISLPDASHVFPAGKAIWVTGWGHTQYGGTGALILQKGEIRVINQTTCENLLPQQITPRMMCVGFLSGDVDSCVGDSGGPLSSVEADGRIFQAGVVSWGVGCAQRNKPGVYTRLPLFRDWIKENTGV
B11: MTSP-1 protease domain Q38H/I41S/D96V/ins97aA/C122S/G151N/Q192A (enzyme)
chain: VVGGTDADEGEWPWQVSLHALGHGHSCGASLISPNWLVSAAHCYIDDRGFRYSDPTQWTAFLGLHDQSQRSAPGVQERRLKRIISHPFFNVFATFDYDIALLELEKPAEYSSMVRPISLPDASHVFPAGKAIWVTGWGHTQYGGTNALILQKGEIRVINQTTCENLLPQQITPRMMCVGFLSGGVDSCAGDSGGPLSSVEADGRIFQAGVVSWGDGCAQRNKPGVYTRLPLFRDWIKENTGV
B12: MTSP-1 protease domain Q38H/I41S/D96K/ins97aD/C122S/G151N/Q192S (enzyme)
chain: VVGGTDADEGEWPWQVSLHALGHGHSCGASLISPNWLVSAAHCYIDDRGFRYSDPTQWTAFLGLHDQSQRSAPGVQERRLKRIISHPFFNKFDTFDYDIALLELEKPAEYSSMVRPISLPDASHVFPAGKAIWVTGWGHTQYGGTNALILQKGEIRVINQTTCENLLPQQITPRMMCVGFLSGGVDSCSGDSGGPLSSVEADGRIFQAGVVSWGDGCAQRNKPGVYTRLPLFRDWIKENTGV
B13: MTSP-1 protease domain I41S/F93L/ins97aV/C122S/Q192V/D217V (enzyme)
chain: VVGGTDADEGEWPWQVSLHALGQGHSCGASLISPNWLVSAAHCYIDDRGFRYSDPTQWTAFLGLHDQSQRSAPGVQERRLKRIISHPLFNDFVTFDYDIALLELEKPAEYSSMVRPISLPDASHVFPAGKAIWVTGWGHTQYGGTGALILQKGEIRVINQTTCENLLPQQITPRMMCVGFLSGGVDSCVGDSGGPLSSVEADGRIFQAGVVSWGVGCAQRNKPGVYTRLPLFRDWIKENTGV
B14: MTSP-1 protease domain L33M/Q38F/I41S/D96A/ins97aW/C122S/G151N/Q192S (enzyme)
chain: VVGGTDADEGEWPWQVSMHALGFGHSCGASLISPNWLVSAAHCYIDDRGFRYSDPTQWTAFLGLHDQSQRSAPGVQERRLKRIISHPFFNAFWTFDYDIALLELEKPAEYSSMVRPISLPDASHVFPAGKAIWVTGWGHTQYGGTNALILQKGEIRVINQTTCENLLPQQITPRMMCVGFLSGGVDSCSGDSGGPLSSVEADGRIFQAGVVSWGDGCAQRNKPGVYTRLPLFRDWIKENTGV
B15: MTSP-1 protease domain I41S/D96E/ins97aG/C122S/G151Q/Q192A (enzyme)
chain: VVGGTDADEGEWPWQVSLHALGQGHSCGASLISPNWLVSAAHCYIDDRGFRYSDPTQWTAFLGLHDQSQRSAPGVQERRLKRIISHPFFNEFGTFDYDIALLELEKPAEYSSMVRPISLPDASHVFPAGKAIWVTGWGHTQYGGTQALILQKGEIRVINQTTCENLLPQQITPRMMCVGFLSGGVDSCAGDSGGPLSSVEADGRIFQAGVVSWGDGCAQRNKPGVYTRLPLFRDWIKENTGV
B16: MTSP-1 protease domain Q38F/I41V/D96Q/ins97aT/C122S/G151D (enzyme)
chain: VVGGTDADEGEWPWQVSLHALGFGHVCGASLISPNWLVSAAHCYIDDRGFRYSDPTQWTAFLGLHDQSQRSAPGVQERRLKRIISHPFFNQFTTFDYDIALLELEKPAEYSSMVRPISLPDASHVFPAGKAIWVTGWGHTQYGGTDALILQKGEIRVINQTTCENLLPQQITPRMMCVGFLSGGVDSCQGDSGGPLSSVEADGRIFQAGVVSWGDGCAQRNKPGVYTRLPLFRDWIKENTGV
B17: MTSP-1 protease domain Q38H/I41S/D96K/ins97aS/C122S/G151P/Q192S (enzyme)
chain: VVGGTDADEGEWPWQVSLHALGHGHSCGASLISPNWLVSAAHCYIDDRGFRYSDPTQWTAFLGLHDQSQRSAPGVQERRLKRIISHPFFNKFSTFDYDIALLELEKPAEYSSMVRPISLPDASHVFPAGKAIWVTGWGHTQYGGTPALILQKGEIRVINQTTCENLLPQQITPRMMCVGFLSGGVDSCSGDSGGPLSSVEADGRIFQAGVVSWGDGCAQRNKPGVYTRLPLFRDWIKENTGV
B18: MTSP-1 Q38H/I41S/D60bT/F60eS/Y60gW/D96K/F97G/T98P/F99L/C122S/G151H/Q175L/Q192D (enzyme)
chain: VVGGTDADEGEWPWQVSLHALGHGHSCGASLISPNWLVSAAHCYIDTRGSRWSDPTQWTAFLGLHDQSQRSAPGVQERRLKRIISHPFFNKGPLDYDIALLELEKPAEYSSMVRPISLPDASHVFPAGKAIWVTGWGHTQYGGTHALILQKGEIRVINQTTCENLLPQLITPRMMCVGFLSGGVDSCDGDSGGPLSSVEADGRIFQAGVVSWGDGCAQRNKPGVYTRLPLFRDWIKENTGV
B19: MTSP-1 Q38H/I41S/D60bT/F60eS/D96K/F97G/ins97aV/T98P/F99L/C122S/G151H/Q175L/Q192D (enzyme)
chain: VVGGTDADEGEWPWQVSLHALGHGHSCGASLISPNWLVSAAHCYIDTRGSRYSDPTQWTAFLGLHDQSQRSAPGVQERRLKRIISHPFFNKGVPLDYDIALLELEKPAEYSSMVRPISLPDASHVFPAGKAIWVTGWGHTQYGGTHALILQKGEIRVINQTTCENLLPQLITPRMMCVGFLSGGVDSCDGDSGGPLSSVEADGRIFQAGVVSWGDGCAQRNKPGVYTRLPLFRDWIKENTGV
B20: MTSP-1 protease domain A35V/I41S/Y59F/C122S/Q192D/D217V (enzyme)
chain: VVGGTDADEGEWPWQVSLHVLGQGHSCGASLISPNWLVSAAHCFIDDRGFRYSDPTQWTAFLGLHDQSQRSAPGVQERRLKRIISHPFFNDFTFDYDIALLELEKPAEYSSMVRPISLPDASHVFPAGKAIWVTGWGHTQYGGTGALILQKGEIRVINQTTCENLLPQQITPRMMCVGFLSGGVDSCDGDSGGPLSSVEADGRIFQAGVVSWGVGCAQRNKPGVYTRLPLFRDWIKENTGV

Sequence of plasma purified human complement protein C3 (human) (P01024 23-667, chain 1 of 2): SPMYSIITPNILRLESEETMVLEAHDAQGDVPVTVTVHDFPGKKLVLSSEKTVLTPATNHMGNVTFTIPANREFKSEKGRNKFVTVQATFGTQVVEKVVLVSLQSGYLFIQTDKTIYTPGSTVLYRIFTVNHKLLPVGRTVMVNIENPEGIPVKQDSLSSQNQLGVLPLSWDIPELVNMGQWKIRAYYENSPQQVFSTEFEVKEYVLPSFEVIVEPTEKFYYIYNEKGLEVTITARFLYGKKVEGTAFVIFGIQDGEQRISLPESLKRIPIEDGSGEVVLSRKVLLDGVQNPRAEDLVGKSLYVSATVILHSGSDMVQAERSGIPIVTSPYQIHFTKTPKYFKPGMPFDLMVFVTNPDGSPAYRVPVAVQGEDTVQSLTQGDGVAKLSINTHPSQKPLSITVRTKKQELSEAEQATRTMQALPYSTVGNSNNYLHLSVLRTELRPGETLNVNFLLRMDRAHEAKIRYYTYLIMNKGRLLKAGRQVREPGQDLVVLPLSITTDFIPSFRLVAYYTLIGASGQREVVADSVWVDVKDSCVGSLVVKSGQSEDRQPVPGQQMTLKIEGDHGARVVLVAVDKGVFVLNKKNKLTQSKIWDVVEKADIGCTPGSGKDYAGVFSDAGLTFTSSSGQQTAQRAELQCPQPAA
Sequence of plasma purified human complement protein C3 (human) (P01024 672-1663, chain 2 of 2): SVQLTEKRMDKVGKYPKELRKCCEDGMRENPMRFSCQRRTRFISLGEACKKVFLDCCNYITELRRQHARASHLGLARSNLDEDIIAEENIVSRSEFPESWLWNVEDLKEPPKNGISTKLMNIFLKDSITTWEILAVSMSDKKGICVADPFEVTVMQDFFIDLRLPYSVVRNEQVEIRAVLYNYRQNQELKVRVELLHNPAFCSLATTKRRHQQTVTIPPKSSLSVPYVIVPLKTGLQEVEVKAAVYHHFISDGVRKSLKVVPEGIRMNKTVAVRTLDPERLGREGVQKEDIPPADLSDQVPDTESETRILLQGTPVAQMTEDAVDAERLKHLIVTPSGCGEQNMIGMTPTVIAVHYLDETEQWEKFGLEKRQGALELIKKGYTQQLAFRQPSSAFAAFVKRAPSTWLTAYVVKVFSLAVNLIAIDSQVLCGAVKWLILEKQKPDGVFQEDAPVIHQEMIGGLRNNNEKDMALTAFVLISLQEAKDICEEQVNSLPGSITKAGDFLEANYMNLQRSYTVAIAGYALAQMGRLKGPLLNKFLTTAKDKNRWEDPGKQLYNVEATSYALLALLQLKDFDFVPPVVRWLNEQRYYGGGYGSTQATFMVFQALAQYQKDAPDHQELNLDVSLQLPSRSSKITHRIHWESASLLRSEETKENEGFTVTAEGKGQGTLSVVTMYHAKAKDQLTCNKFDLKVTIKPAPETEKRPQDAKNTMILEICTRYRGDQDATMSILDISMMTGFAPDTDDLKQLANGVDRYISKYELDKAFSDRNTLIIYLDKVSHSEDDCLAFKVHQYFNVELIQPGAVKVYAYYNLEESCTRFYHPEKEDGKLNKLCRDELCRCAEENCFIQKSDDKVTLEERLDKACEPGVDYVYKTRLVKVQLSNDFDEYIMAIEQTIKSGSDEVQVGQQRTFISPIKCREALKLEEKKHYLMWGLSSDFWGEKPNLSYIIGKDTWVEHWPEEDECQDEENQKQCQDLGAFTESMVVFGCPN

The assay has as its target plasma purified human complement protein C3 (human) (UniProt P01024). The assay can be described thus: cell-based or functional assay.
As to B1, the EC50 hC3 cleavage came out at 4.26 nM.

For B2, the EC50 hC3 cleavage was determined as 10.2 nM.

The molecule B3 showed an EC50 hC3 cleavage of 19.2 nM.

B4 had an EC50 hC3 cleavage of 12.5 nM.

In turn, B5 gave an EC50 hC3 cleavage of 9.5 nM.

Molecule B6 registered an EC50 hC3 cleavage of 44.7 nM.

In turn, B7 displayed an EC50 hC3 cleavage of 7.6 nM.

As to B8, the EC50 hC3 cleavage is 34.6 nM.

For B9, the EC50 hC3 cleavage is 4.49 nM.

Take B10: the EC50 hC3 cleavage worked out at 8.35 nM.

For B11, the EC50 hC3 cleavage amounted to 16 nM.

In turn, B12 displayed an EC50 hC3 cleavage of 26.8 nM.

On to B13, for which the EC50 hC3 cleavage was found to be 9.82 nM.

For the molecule B14, the EC50 hC3 cleavage amounted to 10.6 nM.

B15 gave an EC50 hC3 cleavage of 44.4 nM.

The molecule B16 came in with an EC50 hC3 cleavage of 9.89 nM.

The molecule B17 came in with an EC50 hC3 cleavage of 25.6 nM.

In the case of B18, the EC50 of hC3 cleavage was 7.88 nM.

On to B19, for which the EC50 of hC3 cleavage was found to be 22.2 nM.

B20 came in with an EC50 hC3 cleavage of 39.8 nM.
